From patent US20220089647A1 (FUJIFILM, published 2022)
Starred links: 1 amine or outer side, 2 acyl side, 3 side chain; linkers in the order of their positions; H or OH if unused. Positions of bridges follow the written chain, without caps; N, C: chain ends. Non-standard residues stand in square brackets, D forms with d. No end group written: not given here. Dab(acetyl) = 2-amino-4-acetylamino-butanoic acid residue (N-γ-acetyl-diaminobutyric acid), CC(=O)NCC[C@H](N[*:1])C(=O)[*:2]; COCH2 = acetyl group that carries the bridge; hCys = N[C@@H](CCS)C(=O)O; Dab = NCC[C@H](N)C(=O)O; Dap = NC[C@H](N)C(=O)O

Experiments:
[1] = target: T1, human integrin αvβ5 (human, UniProt P06756 31-992; P18084 24-719, limits assumed); test: SPR, Biacore 3000, peptide immobilised; B = KD more than 50 nM and 100 nM or less
T1 construct: Heterodimer flowed as analyte at 30, 100, 300 and 1,000 nM in HEPES buffer with 5 mM MgCl2

[2] = target: T1, human integrin αvβ5; test: SPR, Biacore 3000, peptide immobilised; C = KD more than 100 nM and 200 nM or less
Description: However, only for the cyclic peptides 125, 126, and 127, in which the number of lysine residues having an amino group as the immobilizing functional group was zero, the amount of the sample solution to be supplied to the sensor chip was set to 500 μL instead of 20 μL. Further, 70 μL of the mixed aqueous solution of 0.2 M EDC and 0.04 M NHS was added to another flow channel of the same sensor chip without immobilizing the sample, and then blocking treatment and washing treatment were carried out. Hereinafter, the obtained immobilization-treated sensor chip is referred to as an “immobilization-treated sensor chip A”.
After adding human integrin αvβ5 for 10 minutes at 25° C., which was diluted to 30 nM using a HEPES buffer solution to which magnesium chloride was added to 5 mM, in each flow channel of the immobilization-treated sensor chip A prepared in (1) above, the same HEPES buffer solution (containing 5 mM magnesium chloride) was allowed to flow as a running buffer for 30 minutes, and measurement was carried out with Biacore 3000. Then, a regeneration treatment of removing human integrin αvβ5 was carried out by allowing a 0.5 M EDTA aqueous solution to flow through each flow channel for 10 minutes. Further, the above-described measurement process consisting of adding integrin for 10 minutes, allowing a running buffer to flow for 30 minutes, carrying out measurement with Biacore 3000, and carrying out regeneration treatment with 0.5 M EDTA aqueous solution was carried out in the same manner for 100 nM human integrin αvβ5, 300 nM human integrin αvβ5, and 1,000 nM human integrin αvβ5. Dissociation constant between the cyclic peptide and human integrin αvβ5 was calculated from the difference between the value measured by Biacore 3000 in the flow channel immobilized with the cyclic peptide and the value measured by Biacore 3000 in the flow channel unimmobilized with the cyclic peptide, in a case where each concentration of human integrin αvβ5 was allowed to flow, and the integrin binding property was evaluated according to the following evaluation standards. It is preferable that the evaluation result satisfies the evaluation standard A, B, or C.

T1 sequence (P06756 31-992 limits assumed, chain 1 of 2): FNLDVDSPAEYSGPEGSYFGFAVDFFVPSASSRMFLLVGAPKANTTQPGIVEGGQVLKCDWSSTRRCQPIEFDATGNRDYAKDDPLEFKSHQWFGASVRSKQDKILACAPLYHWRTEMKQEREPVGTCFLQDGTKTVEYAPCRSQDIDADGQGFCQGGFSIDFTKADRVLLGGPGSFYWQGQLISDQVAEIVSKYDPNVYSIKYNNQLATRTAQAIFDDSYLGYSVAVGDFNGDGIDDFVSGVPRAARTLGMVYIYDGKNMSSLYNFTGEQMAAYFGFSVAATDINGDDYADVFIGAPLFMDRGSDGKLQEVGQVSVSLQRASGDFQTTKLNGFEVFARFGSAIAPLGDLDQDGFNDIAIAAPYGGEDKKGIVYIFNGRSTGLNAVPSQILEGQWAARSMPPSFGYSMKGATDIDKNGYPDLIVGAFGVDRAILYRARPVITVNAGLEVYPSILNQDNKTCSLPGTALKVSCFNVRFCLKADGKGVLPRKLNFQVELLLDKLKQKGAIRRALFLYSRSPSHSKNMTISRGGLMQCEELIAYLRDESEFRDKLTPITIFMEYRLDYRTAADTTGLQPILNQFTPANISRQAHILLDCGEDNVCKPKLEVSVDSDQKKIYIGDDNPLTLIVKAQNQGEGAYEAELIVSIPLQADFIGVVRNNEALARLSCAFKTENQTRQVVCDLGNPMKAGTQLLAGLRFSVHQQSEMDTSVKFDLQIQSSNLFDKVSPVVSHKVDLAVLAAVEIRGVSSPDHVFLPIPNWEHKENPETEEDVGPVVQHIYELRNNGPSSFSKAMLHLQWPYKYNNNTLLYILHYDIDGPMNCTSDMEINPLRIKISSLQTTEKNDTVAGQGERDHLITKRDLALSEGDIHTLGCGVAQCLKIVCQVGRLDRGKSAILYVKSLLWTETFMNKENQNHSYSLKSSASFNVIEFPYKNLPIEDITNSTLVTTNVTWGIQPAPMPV
T1 sequence (P18084 24-719 limits assumed, chain 2 of 2): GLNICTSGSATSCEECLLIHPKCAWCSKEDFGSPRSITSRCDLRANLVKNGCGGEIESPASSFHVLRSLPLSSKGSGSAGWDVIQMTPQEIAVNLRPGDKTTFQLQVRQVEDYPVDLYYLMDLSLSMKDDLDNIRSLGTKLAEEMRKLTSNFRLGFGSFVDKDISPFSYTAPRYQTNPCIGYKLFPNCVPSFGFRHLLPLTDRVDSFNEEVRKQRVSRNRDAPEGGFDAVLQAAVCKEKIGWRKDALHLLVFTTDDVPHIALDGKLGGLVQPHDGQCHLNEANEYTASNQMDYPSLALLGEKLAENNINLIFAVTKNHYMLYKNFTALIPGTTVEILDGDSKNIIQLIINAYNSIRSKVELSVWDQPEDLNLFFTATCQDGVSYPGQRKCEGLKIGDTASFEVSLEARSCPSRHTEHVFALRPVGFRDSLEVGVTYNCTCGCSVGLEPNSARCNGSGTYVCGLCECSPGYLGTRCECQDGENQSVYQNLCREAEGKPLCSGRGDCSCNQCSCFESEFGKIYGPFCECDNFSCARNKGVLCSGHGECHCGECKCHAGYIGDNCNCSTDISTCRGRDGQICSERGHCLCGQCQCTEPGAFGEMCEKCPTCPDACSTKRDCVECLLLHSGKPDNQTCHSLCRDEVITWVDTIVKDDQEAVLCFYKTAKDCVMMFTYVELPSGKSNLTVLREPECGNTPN

For KKK[hCys]VPRGDTFT[Dab(acetyl)] (thioether 4-13) [Cyclic peptide 154], the “dissociation constant (KD)” value [1] was 50 to 100 nM.

With KKK[hCys]TPRGDSFA[Dab(acetyl)] (thioether 4-13) [Cyclic peptide 156] the “dissociation constant (KD)” value [1] was 50 to 100 nM.

For KKK[hCys]PRGDNFR[Dab(acetyl)]A (thioether 4-12) [Cyclic peptide 9], the “dissociation constant (KD)” value [2] was 100 to 200 nM.

For KKK[Dap](COCH2)EPRGDNYRC (thioether 4-13) [Cyclic peptide 167], the “dissociation constant (KD)” value [1] was 50 to 100 nM.

KKKA[hCys]TTRGDSFA[Dab](COCH2)A (thioether 5-14) [Cyclic peptide 161] was tested, and the “dissociation constant (KD)” value [1] was 50 to 100 nM.
